Data from PMC8249609 (2021).

Target: T1, AT1 receptor, residues 1-318, with N-terminal Flag-tag and BRIL (Flag-BRIL-AT1) (human (by the printed RefSeq …, UniProt P30556 1-318))
T1 chain: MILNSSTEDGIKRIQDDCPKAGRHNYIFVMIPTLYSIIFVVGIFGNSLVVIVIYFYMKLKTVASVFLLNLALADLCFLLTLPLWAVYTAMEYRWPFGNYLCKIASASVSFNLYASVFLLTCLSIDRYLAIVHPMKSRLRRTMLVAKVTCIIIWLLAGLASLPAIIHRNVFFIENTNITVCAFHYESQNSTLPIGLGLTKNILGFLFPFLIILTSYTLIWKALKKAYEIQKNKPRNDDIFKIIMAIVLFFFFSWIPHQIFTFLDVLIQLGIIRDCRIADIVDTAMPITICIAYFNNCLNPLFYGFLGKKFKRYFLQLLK
Experiment: SPR

koff: 0.000389 s⁻¹
B1: cartilage oligomeric matrix protein with a C-terminal His-tag (COMP-His) (natural protein)
chain: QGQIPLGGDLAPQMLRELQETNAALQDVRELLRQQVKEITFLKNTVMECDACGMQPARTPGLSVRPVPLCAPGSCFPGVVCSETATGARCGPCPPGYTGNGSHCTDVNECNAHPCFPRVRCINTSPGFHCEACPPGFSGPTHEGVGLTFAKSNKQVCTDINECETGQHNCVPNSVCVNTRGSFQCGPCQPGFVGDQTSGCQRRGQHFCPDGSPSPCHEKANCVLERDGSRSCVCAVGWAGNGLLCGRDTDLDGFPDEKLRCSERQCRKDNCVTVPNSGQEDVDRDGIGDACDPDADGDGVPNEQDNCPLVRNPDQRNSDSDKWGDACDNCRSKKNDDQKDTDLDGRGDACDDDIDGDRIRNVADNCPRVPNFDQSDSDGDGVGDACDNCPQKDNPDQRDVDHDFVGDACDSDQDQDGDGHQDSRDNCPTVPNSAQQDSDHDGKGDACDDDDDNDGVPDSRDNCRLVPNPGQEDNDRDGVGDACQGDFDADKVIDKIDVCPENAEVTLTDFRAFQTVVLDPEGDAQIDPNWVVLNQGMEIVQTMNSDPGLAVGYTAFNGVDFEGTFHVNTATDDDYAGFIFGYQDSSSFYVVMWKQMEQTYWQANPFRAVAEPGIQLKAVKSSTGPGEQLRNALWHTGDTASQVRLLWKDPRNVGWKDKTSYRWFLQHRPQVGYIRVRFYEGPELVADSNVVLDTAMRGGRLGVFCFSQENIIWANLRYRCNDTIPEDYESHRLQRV
